Assay: soluble on expression in E. coli; label from the status in PepcDB or PDB records

| Sequence | soluble on expression in E. coli |
| --- | --- |
| MINFDNFKKYQESFGYMAQQLCFPEKLTFHPKTFEETISKDHPAYEDLVAFRNVMMTFSLSEIKAIYTDTFDFTKKAPLYMTYNKFDTQKERGQMLAKLKVLYEMFGLEMVDNELSDYLPLMLQFLQVAEWRNDPRAEENIQLIIMIIEDGTYVMANALGEDNNPYAYVIQALRKTLKLCLTSPKGVKHHA | not soluble |
| MNLMDLANEHDALILAHNYQTPEIQDVAHHVGDSLALAKIAAESQASTIVLCGVYFMAETTKILSPEKRVIIPEPEAGCSLASSITAEQLRAWKAEHPEAAVVAYVNTTAEVKALSDVCCTSSNAVRVVESIDPDRDILFLPDQFLGAHVQRETGRKNIHVWLGECHVHADISPTHITEMAHNNPQADLYVHPECGCTTSALWLASQGDIPQARILSTGGMMEAARKTAASTVLVATEIGMLHQLRKANTATDFIPVNPYAACPFMQMITMEKLEKALVEGHHEVHVDPVLAQRARGAVEAMITL | not soluble |
| MGSDKIHHHHHHMNVAERKKQTVVSSGISGLDEILRGGLPASNLYIVQGAPGSGKTTAALQFLRAGVALGEPCIYVSLSQTRAELEAIALSHGWTLDGIRVEELSASDSINRAADQTIFQTTELRLDETRKAIESAIEEHKPSRLVYDSLLEIRLITADSPRFRRELIAFKAFLAQRNIVALLLDTQTSETDRTGEEVDGIAHGVIRLDKSLEEYGGVRRRIEVSKMRGVPVADGYHDMAIREGEGVVVFPRIVPGAAARTVKPQLIKSGVDTLDEMFGGGQESGTTTLVIGQAGTGKSTMASLYATAALKRGESVGLFLFEERIETFFRRSEGLGMALRQFHEDGQLILRDFNPNEISPGEFGQIVQQSVNSEKVKVVVIDSFTGYLNSLPHREKAVRDIQSLLKYLARAGVLTILIVAQHGLLGQGVGIDVDVSFLGDTVLLLRIAEHEGRLRRSITVVKKRHGPHDLDVRELFIQSSGVSVIAYNPLPEV | not soluble |
| MEKLINRVGPNGESRAQAVTSDQEKRLLHQLREITRVMKEGKFIDTSPEKEAEEAPYMEDWEGYPEETYPIYDLSDGIKRRQETILVDYPDLKEPSAEEIAEQMGEIEEEGSERLSWDHLPTDPGAQKDNSVAPCDPKPESCSCCVHEEEDPAVLAENAGFSADGYSEQEEATKENLPQDFTNEGLGVSTDNAHVGGMLRKRNPQGFE | not soluble |
| MPMSTDVQGRALAVLNRVAQADWPDRFNLRKPFEKLLYSGSRTGFRLASERSAKQAKGPRKADPDGLFDLSFSDDQQMLVDMLEGFALEVLRPLAHDADAEASLPAELLNQALELGLTHYGVGEVHGGMAGERTTVTTALIAEALAKGDLTLAAALLVPLSAANCIRRWGSPSQQAQWLPAFVSEEGAPLTAIAVNEPSLLFDPQKLATRARRKGSHYLLSGEKCLVLRGLEASRLIVAAKTDEGPALFLVEASAKGVERRAEPAMGLKAGGTARLRLKSVKVPADNRLAAEHFDYRAFLDHASLAWCALALGTGQAALDYVIAYCNEREAFGEPISHRQGVAFMVADIAIELDAMRLMVWRACALAERGQPFQREAYLARLLCAEKAMKIGTDAVQLLGGHGFT | not soluble |
| MEDNNELIKGRGAQMQAKSRFHAQEIVQEHMEGIDEITDINTPTQYLYENAKQIVNKVDSPDIGLAYSMNPYQGCEHGCIYCYARNSHEYWGYNAGIDFEKKIIVKRNAASVLAKTFEKPNWEVLPIMFSGNTDCYQPIERKLQITRNMLQVIATYKHPVGMITKNHLITRDIDILKELAAQQLVHVSISITSARDEIRQKLEPRASAISQRLKTVEALAKENIPVNVMIAPIIPGINHHEIPQIMKQIADAGASSAAYTIVRLNGSIGVVFEDWIRKAYPDRADKVLNQIKECHGGTLNDSRFSTRMRGQGNIAASIHDLFYVSRKKYLSGREYPPLRTDLFVRSNKGQLGLF | not soluble |
| MQKLIMGNWKMNGNSTSIKELCSGISQVQYDTSRVAIAVFPSSVYVKEVISQLPEKVGVGLQNITFYDDGAYTGEISARMLEDIGCDYLLIGHSERRSLFAESDEDVFKKLNKIIDTTITPVVCIGESLDDRQSGKLKQVLATQLSLILENLSVEQLAKVVIAYEPVWAIGTGVVASLEQIQETHQFIRSLLAKVDERLAKNIKIVYGGSLKAENAKDILSLPDVDGGLIGGASLKAAEFNEIINQANKICTE | not soluble |
| MSYDRVKDFDLPELAVHLQPHGAVMIDRKSMFYFRLSGRGAQLAFLLSKNKNLHKTARIWEIMKKEEMSADQLKEELSAHPFTEAWTEGLLDQPLHVSGSLDSYLPISCTLQLTNACNLSCSFCYASSGKPYPEELSSEQWILVMQKLAAHGVADITLTGGEAKLIKGFKELVVVASSLFTNVNVFSNGLNWRDEEVELLSHLGNVSVQISIDGMDNTHDQLRGRKGGFKESMNTIKKLSEANIPVIVAMTINESNADEVSDVVEQCANAGAFIFRAGKTLSVGRATEGFKALDIDFEEMVQIQLREARHKWGDRLNIIDWEHEESSFTTDFCTPGYLAWYIRADGYVTPCQLEDLPLGHILEDSMADIGSPARLLQLKCEAKNCKCIGKIELSEPDLPFQKEVKAGIQE | not soluble |
| MTKTWEQLSAIQPIGVKMLMNSIAKERISHAYLLEGEKGTGKFATAIQMAKSFLCSQRNRVEPCHVCTNCKRIDSGNHPNLHIVKPDGLSIKKQQIHDLQEEFSKTGLEANKKVYIIEHADRMTANAANALLKFLEEPSSDTTAILLTEQSHQILNTILSRCQVVTFRPLPTESLIRRLQDEGITVSLSTLAAQLTNSFDEALTLCNDEWFAQARALVIKLCEALEKDKASIFFVQEKWGKHFGEKEQLQQGLDMLLLIYKDLLYVQLGEEDRLVFREQKEMFESFSYAQKRIVSALFNILEAKNRINANVNAQLVFEQLVLRLQEG | not soluble |
| MKTVRESTTLYNFLGSHNPYWRLTESSDVLRFSTTETTEPDRTLQLSAEQAARIREMTVITSSLMMSLTVDESDLSVHLVGRKINKREWAGNASAWHDTPAVARDLSHGLSFAEQVVSEAHSAIVILDSRGNIQRFNRLCEDYTGLKEHDVIGQSVFKLFMSRREAAASRRNNRVFFRSGNAYEVELWIPTCKGQRLFLFRNKFVHSGSGKNEIFLICSGTDITEERRAQERLRILANTDSITGLPNRNAMQDLIDHAINHADNNKVGVVYLDLDNFKKVNDAYGHLFGDQLLRDVSLAILSCLEHDQVLARPGGDEFLVLASNTSQSALEAMASRILTRLRLPFRIGLIEVYTSCSVGIALSPEHGSDSTAIIRHADTAMYTAKEGGRGQFCVFTPEMNQRVFEYLWLDTNLRKALENDQLVIHYQPKITWRGEVRSLEALVRWQSPERGLIPPLDFISYAEESGLIVPLGRWVILDVVRQVAKWRDKGINLRVAVNISARQLADQTIFTALKQVLQELNFEYCPIDVELTESCLIENDELALSVIQQFSQLGAQVHLDDFGTGYSSLSQLARFPIDAIKLDQVFVRDIHKQPVSQSLVRAIVAVAQALNLQVIAEGVESAKEDAFLTKNGINERQGFLFAKPMPAVAFERWYKRYLKRA | not soluble |
| MGSDKIHHHHHHMKLLILGNHTCGNRGDSAILRGLLDAINILNPHTEVDVMSRYPVSSSWLLNRPVMGDPLFLQMTQHNSAAGVVGRIKKVLRRRYQHQVLLSRVTDTGKLRNIAIAQGFTDFVRLLSGYDAIIQVGGSFFVDLYGVPQFEHALCTFMAKKPLFMIGHSVGPFQDEQFNQLANYVFGHCDALILRESVSLDLMKRRNITTAKVEHGVDTAWLVDHHTEDFTASYAVQHWLDVAAQQKTVAITLRELAPFDKRLGTTQQAYEKAFAGVVNRILDEGYQVIALSTCTGIDSYNKDDRMVALNLRQHISDPARYHVVMDELNDLEMGKILGACELTVGTRLHSAIISMNFATPAIAINYEHKSAGIMQQLGLPEMAIDIRHLLDGSLQAMVADTLGQLPVLNARFNEAVSRERQTGMQMVQSVLERIGEVK | not soluble |
| MTTKEITLDENGFATEAGFITVYNYSGETREYISTSTEYLAVGVGIPACSCLDAPVTHKAGYAICRSADFNSWEYVPDHRGEIVFSTETGESKEITAPGDYPDNTTTIAPLTPYDKWDGEKWVTDTEAQHSAAVDAAEAQRQSLIDTAMASISLIQLKLQAGRKLTQAETTRLNAVLDYIDAVTATDTSTAPDVIWPELPEA | not soluble |
| MSVLRSMDKLPDLNRATVLLVSTEDALLQQLAESMLKDDCASELRVHLANSLPLPSNVNRPRIDLIVFVINLHSKYSLQKVEEFLQHVDSSFFLGKVCFLVTGAGQESHCSVHQNTVIKLAHTYRSPLFLCDLQKVESFRAAMARRLVRILQICAGHVPGVSALNLMSLLRSPENPPSKEL | not soluble |
| DSKKIVGVFYKANEYATKNPNFLGCVENALGIRDWLESQGHQYIVTDDKEGPDCELEKHIPDLHVLISTPFHPAYVTAERIKKAKNLKLLLTAGIGSDHIDLQAAAAAGLTVAEVTGSNVVSVAEDELMRILILMRNFVPGYNQVVKGEWNVAGIAYRAYDLEGKTIGTVGAGRIGKLLLQRLKPFGCNLLYHDRLQMAPELEKETGAKFVEDLNEMLPKCDVIVINMPLTEKTRGMFNKELIGKLKKGVLIVNNARGAIMERQAVVDAVESGHIGGYSGDVWDPQPAPKDHPWRYMPNQAMTPHTSGTTIDAQLRYAAGTKDMLERYFKGEDFPTENYIVKDGELAPQYR | soluble |
| MSASLAILTIGVVPMSEVLPLLTEYIDEQHITHHSLLGKMSREDVMADYAVEPGDDPLLTLLNDNQIAHVSRQKVERDLQSVVEVLDNQGYDVIILMSTAAIKSMAARNSILLEPLRIIPPLVASIVDGHQVGVIVPVAELLAAQEKKWQVLQMPPVYSLANPVHGSEQQLIDAGQALLDQGADVIMLDCLGFHQRHRDILQQALDVPVLLSNVLIARLASELLV | not soluble |
| MPNKNGVGKKSPSTSKSSNNNKRREPEFRYEEKTAVHGGKTKYEEKTVVHGGKTKNVVAKKVPSKASVIVDKKASTTETTVPITVKKSLLSISTAYDRTVTEEKEKEKPKKKEKEKWSGEEASIKFVKSLGSINLKDEYDEIQKLPVQTERCKMWQSHSSRNRHNDSKCYDHNRIIVQMCKDDYINGSKINVPHFTPSIYLVQLPKMDSVDAVEEFWRVVFHEQCQTVHIIARPEELTNPAIDKLFCQESGAWLYANGFFVNTRKVEKKENAKADMFVVELLPEGCSNAVMCSVYLHTYWKPLFGPDRFGAQIRAAHQIAKNENGNSPTVIASVNGSGRNAALLTLAVVEDQLTRGKEPKISEIVRTIREQRPQSVDSYIQYVSLYMATNWLIKTKLPSGHEVVSKIKKFNEKATRSLPGSMMKTPTEEL | not soluble |
| MGSDKIHHHHHHMANFAYEVFSTVVAQHTFYQAAATLNVTPSAVSHSINQLEKELGFPLFIRNRSGVELTSDGRQVLPYVQEILNTESNLRQVADNIQGLHSGSVRIGGFSSVCINWLPRIIREFNHKYPDIKISVMQGNFNEITNWAKIGTIDIGFTSMPVNENLLVHSLINDPIYCVTPADFIPENGEFITTDDVADKNFILQQSDYDRDTKLALDHYHVTNNFLRFSIDDQSIISMVESGLGMGILPQLALRKLTGDVNTFSFAEPYNREIALVANKTQAAAPSTAIMIRAIKQFLTKEYPDQMLWQ | not soluble |
| MRIVPFGAAREVTGSAHLLLAGGRRVLLDCGMFQGKEEARNHAPFGFDPKEVDAVLLTHAHLDHVGRLPKLFREGYRGPVYATRATVLLMEIVLEDALKVMDEPFFGPEDVEEALGHLRPLEYGEWLRLGALSLAFGQAGHLPGSAFVVAQGEGRTLVYSGDLGNREKDVLPDPSLPPLADLVLAEGTYGDRPHRPYRETVREFLEILEKTLSQGGKVLIPTFAVERAQEILYVLYTHGHRLPRAPIYLDSPMAGRVLSLYPRLVRYFSEEVQAHFLQGKNPFRPAGLEVVEHTEASKALNRAPGPMVVLAGSGMLAGGRILHHLKHGLSDPRNALVFVGYQPQGGLGAEIIARPPAVRILGEEVPLRASVHTLGGFSGHAGQDELLDWLQGEPRVVLVHGEEEKLLALGKLLALRGQEVSLARFGEGVPV | soluble |
